Normalised SPOT signal, Boehringer light units (BLU); mean over the file's lines of this peptide data for 38 molecules are collected here from article PMC314469, “Protein Interaction Networks by Proteome Peptide Scanning” (PLoS Biology, 2004).

In test [1] the target is endophilin SH3 (SH3G2_HUMAN), Q99962. The test is described as follows: SPOT array.
The target of test [2] is T1, amphyphisin SH3 (AMPH_HUMAN), P49418.
T1 chain: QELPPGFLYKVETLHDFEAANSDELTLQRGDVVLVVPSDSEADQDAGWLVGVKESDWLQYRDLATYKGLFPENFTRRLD
The test is described as follows: SPOT array.

B1: Q92625 879-893 (peptide)
chain: YEEPPQKPPRFSQL
In the case of B1, the figures for the normalised SPOT signal, Boehringer light units (BLU); mean over the file's lines of this peptide in test [1] and in test [2] were 131 and 3280, respectively.

B2: Q12770 808-821 (peptide)
chain: SLTRIPRPGRQRRD
Regarding B2, the normalised SPOT signal, Boehringer light units (BLU); mean over the file's lines of this peptide in test [1] is 294; in test [2], 817.

B3: P11229 442-455 (peptide)
chain: WRKIPKRPGSVHRT
As to B3, the values for the normalised SPOT signal, Boehringer light units (BLU); mean over the file's lines of this peptide in test [1] and in test [2] were 573 and 48.9, respectively.

B4: Q9Y6A1 387-400 (peptide)
chain: VVSSPPRPVRHGDM
With B4, the normalised SPOT signal, Boehringer light units (BLU); mean over the file's lines of this peptide turned out to be 2050 in test [1] and 2920 in test [2].

B5: O94824 705-718 (peptide)
chain: YERTLRRPVPLPHS
Take B5: the normalised SPOT signal, Boehringer light units (BLU); mean over the file's lines of this peptide in test [1] came out at 297; in test [2], 37.

B6: O43397 6-19 (peptide)
chain: WSEVLHRPWRNHPI
Regarding B6, the results for the normalised SPOT signal, Boehringer light units (BLU); mean over the file's lines of this peptide in test [1] and in test [2] were 366 and 272, respectively.

B7: Q96QG0 338-351 (peptide)
chain: SPSAPRRPRRPRRP
For the molecule B7, the normalised SPOT signal, Boehringer light units (BLU); mean over the file's lines of this peptide in test [1] is 1730; in test [2] it was 4890.

B8: Q9C0B8 71-85 (peptide)
chain: WGALPPRPPLLLLL
As to B8, the normalised SPOT signal, Boehringer light units (BLU); mean over the file's lines of this peptide was found to be 3390 in test [1] and 42.8 in test [2].

B9: Q9Y6W6 10-23 (peptide)
chain: VVVALSRPVRPQDL
On to B9, for which the normalised SPOT signal, Boehringer light units (BLU); mean over the file's lines of this peptide in test [1] came out at 0; in test [2], 465.

B10: P54317 34-47 (peptide)
chain: WAGTLQRPVKLLPW
B10: the values for the normalised SPOT signal, Boehringer light units (BLU); mean over the file's lines of this peptide in test [1] and in test [2] were 332 and 109, respectively.

B11: O14782 762-776 (peptide)
chain: WSQSPQRPPPSTTH
In the case of B11, the values for the normalised SPOT signal, Boehringer light units (BLU); mean over the file's lines of this peptide in test [1] and in test [2] were 557 and 73.9, respectively.

B12: P23368 123-136 (peptide)
chain: YGHIFRRPKGLFIS
Turning to B12, the normalised SPOT signal, Boehringer light units (BLU); mean over the file's lines of this peptide amounted to 110 in test [1] and 35.9 in test [2].

B13: Q9UL63 619-632 (peptide)
chain: WSLKLSRPSKDYLL
As for B13, the figures for the normalised SPOT signal, Boehringer light units (BLU); mean over the file's lines of this peptide in test [1] and in test [2] were 2270 and 1110, respectively.

B14: P50548 338-351 (peptide)
chain: VVPQPQRPDKSPLP
For B14, the normalised SPOT signal, Boehringer light units (BLU); mean over the file's lines of this peptide was 279 in test [1] and 64.7 in test [2].

B15: Q9NP08 303-316 (peptide)
chain: WPAGPRRPHRSSAS
Consider B15, for which the results for the normalised SPOT signal, Boehringer light units (BLU); mean over the file's lines of this peptide in test [1] and in test [2] were 4250 and 7190, respectively.

B16: Q9P2P9 924-937 (peptide)
chain: WVTMPRRPPPSGGL
Regarding B16, the normalised SPOT signal, Boehringer light units (BLU); mean over the file's lines of this peptide in test [1] was 2400; in test [2], 31.

B17: Q9ULK5 218-231 (peptide)
chain: WALFFRRPKASLPR
In the case of B17, the normalised SPOT signal, Boehringer light units (BLU); mean over the file's lines of this peptide came out at 1700 in test [1] and 194 in test [2].

B18: O94854 101-114 (peptide)
chain: WIPVLQRPSRTAAV
For the molecule B18, the normalised SPOT signal, Boehringer light units (BLU); mean over the file's lines of this peptide amounted to 1300 in test [1] and 2390 in test [2].

B19: O15250 155-168 (peptide)
chain: WTDRPERPSKPLLT
For the molecule B19, the normalised SPOT signal, Boehringer light units (BLU); mean over the file's lines of this peptide in test [1] came out at 508; in test [2], 3180.

B20: Q9UGQ3 12-26 (peptide)
chain: YDTFPEKPPPSPGD
Consider B20, for which the normalised SPOT signal, Boehringer light units (BLU); mean over the file's lines of this peptide in test [1] worked out at 97.2; in test [2], 33.

B21: AAH30267 1118-1132 (peptide)
chain: VYTPPPRPPPPWGS
For the molecule B21, the normalised SPOT signal, Boehringer light units (BLU); mean over the file's lines of this peptide in test [1] was 4170; in test [2], 180.

B22: P42898 339-352 (peptide)
chain: WTEDPRRPLPWALS
On to B22, for which the normalised SPOT signal, Boehringer light units (BLU); mean over the file's lines of this peptide was determined as 110 in test [1] and 38.4 in test [2].

B23: Q9UP58 185-199 (peptide)
chain: WSRSPPRPPRERFE
With B23, the normalised SPOT signal, Boehringer light units (BLU); mean over the file's lines of this peptide in test [1] is 18400; in test [2], 7550.

B24: Q96DX2 170-184 (peptide)
chain: WGLLPFRPPRPLPV
Consider B24, for which the normalised SPOT signal, Boehringer light units (BLU); mean over the file's lines of this peptide in test [1] was 3620; in test [2], 4460.

B25: Q92794 305-318 (peptide)
chain: WISQISRPRKKGRK
Turning to B25, the normalised SPOT signal, Boehringer light units (BLU); mean over the file's lines of this peptide in test [1] is 452; in test [2] it was 190.

B26: P42695 1464-1478 (peptide)
chain: SLSLPDKPPPQPQQ
Turning to B26, the normalised SPOT signal, Boehringer light units (BLU); mean over the file's lines of this peptide in test [1] stood at 59.6; in test [2], 57.9.

B27: Q9UMR2 108-121 (peptide)
chain: YAMGFNRPSKIQEN
As for B27, the normalised SPOT signal, Boehringer light units (BLU); mean over the file's lines of this peptide in test [1] came out at 244; in test [2], 237.

B28: Q13006 89-102 (peptide)
chain: YSTGPPRPGRLFGS
Take B28: the figures for the normalised SPOT signal, Boehringer light units (BLU); mean over the file's lines of this peptide in test [1] and in test [2] were 364 and 317, respectively.

B29: Q96N50 15-28 (peptide)
chain: WRYDLRRPSFTRTW
Consider B29, for which the values for the normalised SPOT signal, Boehringer light units (BLU); mean over the file's lines of this peptide in test [1] and in test [2] were 628 and 140, respectively.

B30: P30990 153-166 (peptide)
chain: YENKPRRPYILKRD
Consider B30, for which the normalised SPOT signal, Boehringer light units (BLU); mean over the file's lines of this peptide in test [1] came to 208; in test [2], 51.5.

B31: Q9Y4J6 675-688 (peptide)
chain: SNKGFRRPSEKNQH
With B31, the normalised SPOT signal, Boehringer light units (BLU); mean over the file's lines of this peptide in test [1] is 55.9; in test [2], 43.2.

B32: O94820 840-854 (peptide)
chain: VVPVPERPPEPRAM
Turning to B32, the normalised SPOT signal, Boehringer light units (BLU); mean over the file's lines of this peptide amounted to 860 in test [1] and 15.7 in test [2].

B33: Q96G29 26-39 (peptide)
chain: WLGSLRRPSLVHGY
As for B33, the normalised SPOT signal, Boehringer light units (BLU); mean over the file's lines of this peptide in test [1] amounted to 2680; in test [2], 879.

B34: P54198 312-325 (peptide)
chain: WLTSLKRPLVVIHE
For B34, the figures for the normalised SPOT signal, Boehringer light units (BLU); mean over the file's lines of this peptide in test [1] and in test [2] were 326 and 26.3, respectively.

B35: O94991 330-344 (peptide)
chain: VYKPPLKPPKGTRQ
Consider B35, for which the normalised SPOT signal, Boehringer light units (BLU); mean over the file's lines of this peptide was 782 in test [1] and 80.6 in test [2].

B36: O14686 2329-2343 (peptide)
chain: YGLSPLRPPSVLPP
B36: the figures for the normalised SPOT signal, Boehringer light units (BLU); mean over the file's lines of this peptide in test [1] and in test [2] were 118 and 40, respectively.

B37: Q9H1V5 704-717 (peptide)
chain: WRRSLRRPDSRGRF
Regarding B37, the normalised SPOT signal, Boehringer light units (BLU); mean over the file's lines of this peptide in test [1] came out at 217; in test [2] it was 95.6.

B38: Q13545 27-40 (peptide)
chain: WGSLPARPRRPTPT
B38: the normalised SPOT signal, Boehringer light units (BLU); mean over the file's lines of this peptide in test [1] was 7230; in test [2], 4730.
